Experiments:
Type in all cases: biochemical
[1] = Enzyme activity with pNP-acylesters of different chain length; conditions: 4 mM, 45° C., pH 7.2
Method: Enzyme activity tests were performed by incubating the enzyme with 4 mM substrate at 45° C. in 100 mM Tris-HCl buffer at pH 7.2, unless otherwise indicated. The reaction was measured at 410 nm. One unit is defined as the amount of enzyme catalyzing the appearance of 1 μmol of free p-nitrophenol/min. Enzyme activity against pNP-acylesters (butyrate, valerate, caproate, octanoate, decanoate and palmitate) was tested under the above conditions. […] The enzyme according to SEQ ID NO: 6 converted pNP-caproate with a specific activity of 80.0 U/mg.

[2] = Titration assay with vinyl acid esters; conditions: 10 mM, 37° C., pH 7.0
Method: (§1) Enzyme activities on the substrates triacetin, tripropionin, tributyrin, tricaprylene, trilaurin and vinyl-substrates (vinyl-acetate, ˜propionate, ˜butyrate, ˜caproate, ˜caprylate and ˜laurate) were determined using a standard titration assay with minor modifications. Tests were performed with a Methrom 718 STAT potentiometric titrator (Herisau, Switzerland) and by using 10 mM NaOH for titration. The substrates at 10 mM concentration were emulsified in 20 ml reaction buffer containing 2 mM Tris/HCl pH 7.0. After addition of 7.5 μg of the purified enzyme the NaOH consumption was recorded at a reaction temperature of 37° C. One unit was defined as the amount of enzyme that released […] of fatty acid per min.

[3] = Substrate specificity on pNP-substrates with importance for pharmaceutical products; conditions: 30 minute, 40° C., pH 7.5
Method: The substrate range of the two enzymes was determined using pNP esters of the following: benzoate, 2-(4-isobutylphenyl)propanoate (Ibuprofen), 2-phenylpropanoate, 3-phenylbutanoate, cyclohexanoate, 2-(3-benzoylphenyl)propanoate, 2-naphthoate, 1-naphthoate, adamantanoate and 2-(6-methoxynaphthalene-2-yl)propanoate (Naproxen). Activity was determined at 410 nm after 30 minute incubation at 40° C. The reaction mixture was 950 μl buffer (100 mM Tris, pH 7.5), 50 μl substrate (5 mg/ml in DMSO) and 1 μg enzyme.

[4] = Titration assay with triglycerides; conditions: 10 mM, 37° C., pH 7.0
Method: as §1

[5] = Effect of bivalent cations and EDTA on catalytic activity
[6] = Determination of pH optimum by titration; conditions: incubation for up to 48 hours, up to pH 12 (data not shown)
Method: The pH optimum for the enzymes was determined using tributyrin as substrate. The incubation conditions were 20 ml buffer (2.5 mM phosphate buffer [pH 4-7], 2.5 mM Tris/HCl buffer [pH 7-11] or 2.5 mM glycine buffer [pH 9-11], supplemented with 100 mM NaCl) stirred at a constant temperature of 37° C. The esterase substrate tributyrin (final concentration of 2 mM) was added to 5 ml of the corresponding buffer at 37° C., emulsified and added to the whole preparation. This substrate emulsion was held constant at the correct pH automatically by the titrator (718 STAT Titrino; Metrohm, Herisau, Switzerland) for 2 min and this served as the control. […]

[7] = Determination of thermal stability
Method: To assay the thermostability of the enzymes they were incubated at different temperatures for one hour and the residual activity assayed at 10 minute intervals. Residual activity was measured using pNP-caproate as substrate as described above.

[8] = Solvent stability, residual activity; conditions: 1 h at 30° C., measured at 45° C.
Method: The stability of the enzymes was determined in the presence of the following solvents: DMSO, isopropanol, methanol, dimethylformamide, acetone and acetonitrile. The enzymes were incubated for 1 hour at 30° C. in the presence of either 15% (v/v) or 30% (v/v) of the solvents and the residual activity was measured at 45° C. The substrate used was pNP-butyrate.

B1: EstCE1: recombinant enzyme having carboxyl esterase activity, amino acid sequence SEQ ID NO: 4, family VIII of bacterial lipolytic enzymes (protein)
chain: MSIADQSLAKRVQGVSQQAIDEGRIVGSVVLIARHGRVIYANASGYADREQKKPMVRETQFRLSSVSKPYITLAAMRMIEQQKLGLDDTVSRWLPWFTPALADGVRPPIKIRHLLSHTAGLDYRLSQPAEGPYHRLGIKDGMELSSLTLEQNLRLLAQADLLAEPGSEFRYSLAIDVLGAVLEQVAGEPLPQVFNHWVAQPLGLRNTGFYTTDVDNLATAYHDTAAEPEPIRDGMLLTLPEGFGFEIELAPSRALDAQAYPSGGAGMVGDADDVLQLVETLRTGKEGILQPATAALMRQAHVGSHAETQGPGWGFGFGGAVLEDAQLAATPQHNGTLQWGGVYGHSWFYDPQAAISVVALTNTAFEGMSGRYPLQIRDAVYGTNEPTR
modifications: metagenomic sequence
Molecule B1 has a specific activity ([1]; substrate pNP-butyrate (C4)) of 31.1 U/mg, a specific activity ([1]; substrate pNP-caproate (C6)) of 7.4 U/mg and a specific activity ([1]; substrate pNP-decanoate (C10)) of 0.9 U/mg. For the same molecule, the specific activity ([1]; substrate pNP-octanoate (C8)) was 1.0 U/mg, the specific activity ([1]; substrate pNP-palmitate (C16)) was 0.0 U/mg and the specific activity ([1]; substrate pNP-valerate (C5)) was 22.9 U/mg. It also gave a specific activity ([2]; substrate vinyl acetate (C2)) of 13.3 U/mg, a specific activity ([2]; substrate vinyl butyrate (C4)) of 16.0 U/mg and a specific activity ([2]; substrate vinyl caproate (C6)) of 0 U/mg. It also gave a specific activity ([2]; substrate vinyl caprylate (C8)) of 0 U/mg, a specific activity ([2]; substrate vinyl laurinate (C12)) of 0 U/mg and a specific activity ([2]; substrate vinyl propionate (C3)) of 13.3 U/mg. For the same molecule, the specific activity ([3]; pNP-ester of 1-naphthoate) was 0 U/mg, the specific activity ([3]; pNP-ester of 2-(3-benzoylphenyl) propanoate) was 0.8 U/mg and the specific activity ([3]; pNP-ester of 2-(4-isobutylphenyl) propanoate (Ibuprofen)) was 0 U/mg. For the same molecule, the specific activity ([3]; pNP-ester of 2-(6-methoxy-naphthalen-2-yl) propanoate (Naproxen)) was 0 U/mg, the specific activity ([3]; pNP-ester of 2-naphthoate) was 0 U/mg and the specific activity ([3]; pNP-ester of 2-phenylpropanoate) was 0 U/mg. The specific activity ([3]; pNP-ester of 3-phenylbutanoate) was 1.0 U/mg, the specific activity ([3]; pNP-ester of adamantanoate) was 0 U/mg and the specific activity ([3]; pNP-ester of benzoate) was 12.1 U/mg. The specific activity ([3]; pNP-ester of cyclohexanoate) was 16.8 U/mg, the specific activity ([4]; substrate triacetin (C2)) was 26.7 U/mg and the specific activity ([4]; substrate tributyrin (C4)) was 54.7 U/mg. The specific activity ([4]; substrate tricaprylin (C8)) was 0 U/mg, the specific activity ([4]; substrate trilaurin (C12)) was 0 U/mg and the specific activity ([4]; substrate tripropionin (C3)) was 33.3 U/mg. The “stimulatory effect on catalytic activity” value ([5]; in the presence of Ca^2+) was 118%, the “stimulatory effect on catalytic activity” value ([5]; in the presence of Mg^2+) was 108% and the “stability under alkaline conditions, in words” value [6] was “extremely stable with little loss of activity”. For the same molecule, the “thermal stability, in words” value ([7]; incubated for at least 60 minutes at 40° C.) was “without a major loss of activity”, the “thermal stability, in words” value ([7]; incubation at temperatures above 45° C. for more than 60 minutes (data not shown)) was “rapid inactivation” and the “Residual activity after 1 h incubation in the presence of solvent” value (“Residual activity after 1 h incubation” below) ([8]; 15% (v/v) Acetone) was 14%. The “Residual activity after 1 h incubation” value ([8]; 15% (v/v) Acetonitrile) was 0%, the “Residual activity after 1 h incubation” value ([8]; 15% (v/v) DMSO) was 103% and the “Residual activity after 1 h incubation” value ([8]; 15% (v/v) Dimethylformamid) was 34%. The “Residual activity after 1 h incubation” value ([8]; 15% (v/v) Isopropanol) was 75%, the “Residual activity after 1 h incubation” value ([8]; 15% (v/v) Methanol) was 90% and the “Residual activity after 1 h incubation” value ([8]; 30% (v/v) Acetone) was 0%. For the same molecule, the “Residual activity after 1 h incubation” value ([8]; 30% (v/v) Acetonitrile) was 0%, the “Residual activity after 1 h incubation” value ([8]; 30% (v/v) DMSO) was 17% and the “Residual activity after 1 h incubation” value ([8]; 30% (v/v) Dimethylformamid) was 0%. For the same molecule, the “Residual activity after 1 h incubation” value ([8]; 30% (v/v) Isopropanol) was 23% and the “Residual activity after 1 h incubation” value ([8]; 30% (v/v) Methanol) was 0%.
